Assay [1] deals with T1, Human AXL-Fc (R&D Systems, #154-AL) (human, UniProt P30530 26-451).
T1 construct: Bought reagent; also called human AXL-Fc fusion protein; human AXL-Fc protein; not shown: Fc part of the bought fusion protein
T1 sequence: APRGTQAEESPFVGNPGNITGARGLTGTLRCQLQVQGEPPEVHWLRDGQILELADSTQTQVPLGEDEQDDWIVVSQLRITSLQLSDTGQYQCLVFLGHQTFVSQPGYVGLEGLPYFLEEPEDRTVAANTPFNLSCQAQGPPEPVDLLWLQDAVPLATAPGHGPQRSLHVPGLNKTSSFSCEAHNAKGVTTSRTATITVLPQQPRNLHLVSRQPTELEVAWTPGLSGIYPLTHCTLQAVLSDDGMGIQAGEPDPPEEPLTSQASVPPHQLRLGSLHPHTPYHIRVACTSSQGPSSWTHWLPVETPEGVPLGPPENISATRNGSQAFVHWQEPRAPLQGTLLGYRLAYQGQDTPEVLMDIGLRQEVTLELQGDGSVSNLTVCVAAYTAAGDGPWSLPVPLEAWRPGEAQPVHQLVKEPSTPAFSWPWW
Nature of the assay: ELISA on plate-adsorbed human AXL-Fc (1 ug/ml), 5-fold antibody dilution series, AP-conjugated goat anti-human IgG, fluorescent substrate (Example 14). For orientation: ELISA stands for enzyme-linked immunosorbent assay.

The target of assay [2] is T1, Human AXL-Fc (R&D Systems, #154-AL). Nature of the assay: ELISA on plate-adsorbed human AXL-Fc (1 ug/ml), 5-fold antibody dilution series, AP-conjugated goat anti-human IgG, fluorescent substrate (Example 13).
Assay [3] has the same target. Nature of the assay: ELISA on plate-adsorbed human AXL-Fc (1 ug/ml), 5-fold antibody dilution series, AP-conjugated goat anti-human IgG, fluorescent substrate (Example 23).

In general, EC50 (read off the curve) refers to the concentration giving half of the maximal effect. Low values mean an effect from little substance, high ones a need for much substance.

B1: h#11D5-T3 (antibody, human IgG1, kappa, V domains shown)
VH: EVQLQESGPGLVKPSQTLSLTCTVSGYSITSNYWGWIRKFPGNKMEWIGHITNSGNTTYNPSLKSRISISRDTSKNQFSLKLSSVTPADTAVYYCAKGAFDYWGQGTLVTVSS
VL: DIQMTQSPSSLSASVGDRVTITCRASQDIGNYLSWFQQKVGKSPRRMIYGAIKLAVGVPSRFSGSRSGSDYTLTISSLQPEDFAIYYCLQYIQFPLTFGSGTKLEIKR
notes: Humanized IgG1/kappa
In the case of B1, in assay [1], the “EC50 (read off the curve)” value is approximately 0.02 µg/mL.

B2: h#11B7-T3 (antibody, human IgG1, kappa, V domains shown)
VH: QVQLQESGPGLVKPSQTLSLTCAVSGYSITSNYWGWIRKPPGDGLEWMGYITYSGSTSYNPSLKSRISITRDTSKNQFSLKLSSVTAADTAVYYCAITTFYYWGQGTLVTVSS
VL: DIQMTQSPSSLSASVGDRVTITCRASQDIGNYLRWFQQKPGKAPKLMISGATNLAAGVPSRFSGSRSGSDYTLTISSLQPEDFATYYCLQSKESPWTFGGGTKVEIKR
notes: Humanized IgG1/kappa
In the case of B2, in assay [2], the concentration for a half-maximal effect (EC50 (read off the curve)) is approximately 0.02 µg/mL.

B3: h#11B7-T2 (antibody, human IgG1, kappa, V domains shown)
VH: QIQLQESGPGLVKPSQTLSLTCAVSGYSITSNYWGWIRQPPGKGLEWMGYITYSGSTSYNPSLKSRISISVDTSKNQFSLKLSSVTAADTAVYYCAITTFYYWGQGTLVTVSS
VL: DIQMTQSPSSLSASVGDRVTITCRASQDIGNYLRWFQQKPGKAPKLMISGATNLAAGVPSRFSGTGSGTDYTFTISSLQPEDFATYYCLQSKESPWTFGGGTKVEIKR
notes: Humanized IgG1/kappa
Turning to B3, the “EC50 (read off the curve)” value in assay [2] is approximately 0.03 µg/mL.

B4: h#11B7-T6 (antibody, human IgG1, kappa)
heavy: not shown
light: DIQMTQSPSSLSASVGDRVTITCRASQDIGNYLRWFQQKPGKAPKLMISGATNLAAGVPSRFSGSGSGSDYTLTISSLQPEDFATYYCLQSKESPWTFGQGTKVEIKRTVAAPSVFIFPPSDEQLKSGTASVVCLLNNFYPREAKVQWKVDNALQSGNSQESVTEQDSKDSTYSLSSTLTLSKADYEKHKVYACEVTHQGLSSPVTKSFNRGEC
notes: Humanized IgG1/kappa
As to B4, the “EC50 (read off the curve)” value in assay [2] was approximately 0.02 µg/mL.

B5: h#11B7-T31 (antibody, human IgG1, kappa)
heavy: not shown
light: DIQMTQSPSSLSASVGDRVTITCRASQDIGNYLRWFQQKPGKAPKLLISGATNLAAGVPSRFSGSGSGSDFTLTISSLQPEDFATYYCLQSKESPWTFGQGTKLEIKRTVAAPSVFIFPPSDEQLKSGTASVVCLLNNFYPREAKVQWKVDNALQSGNSQESVTEQDSKDSTYSLSSTLTLSKADYEKHKVYACEVTHQGLSSPVTKSFNRGEC
notes: Humanized IgG1/kappa
Regarding B5, the “EC50 (read off the curve)” value in assay [3] was approximately 0.04 µg/mL.

B6: h#11B7-T28 (antibody, human IgG1, kappa)
heavy: not shown
light: DIQMTQSPSSLSASVGDRVTITCRASQDIGNYLRWFQQKPGKAPKLLISGATNLAAGVPSRFSGSGSGSDYTLTISSLQPEDFATYYCLQSKESPWTFGQGTKLEIKRTVAAPSVFIFPPSDEQLKSGTASVVCLLNNFYPREAKVQWKVDNALQSGNSQESVTEQDSKDSTYSLSSTLTLSKADYEKHKVYACEVTHQGLSSPVTKSFNRGEC
notes: Humanized IgG1/kappa
For B6, the “EC50 (read off the curve)” value in assay [3] was approximately 0.04 µg/mL.

B7: h#11B7-T30 (antibody, human IgG1, kappa)
heavy: not shown
light: DIQMTQSPSSLSASVGDRVTITCRASQDIGNYLRWFQQKPGKAPKLLISGATNLAAGVPSRFSGSGSGSDYTLTISSLQPEDFATYYCLQSKESPWTFGQGTKLEIKRTVAAPSVFIFPPSDEQLKSGTASVVCLLNNFYPREAKVQWKVDNALQSGNSQESVTEQDSKDSTYSLSSTLTLSKADYEKHKVYACEVTHQGLSSPVTKSFNRGEC
notes: Humanized IgG1/kappa
As to B7, the “EC50 (read off the curve)” value in assay [3] is approximately 0.04 µg/mL.

B8: h#11B7-T4 (antibody, human IgG1, kappa)
heavy: not shown
light: DIQMTQSPSSLSASVGDRVTITCRASQDIGNYLRWYQQKPGKAPKLLISGATNLAAGVPSRFSGSGSGSDFTLTISSLQPEDFATYYCLQSKESPWTFGQGTKLEIKRTVAAPSVFIFPPSDEQLKSGTASVVCLLNNFYPREAKVQWKVDNALQSGNSQESVTEQDSKDSTYSLSSTLTLSKADYEKHKVYACEVTHQGLSSPVTKSFNRGEC
notes: Humanized IgG1/kappa
With B8, the “EC50 (read off the curve)” value in assay [2] is approximately 0.06 µg/mL.

B9: h#11B7-T5 (antibody, human IgG1, kappa)
heavy: not shown
light: DIQMTQSPSSLSASVGDRVTITCRASQDIGNYLRWFQQKPGKAPKLMISGATNLAAGVPSRFSGSGSGSDYTLTISSLQPEDFATYYCLQSKESPWTFGQGTKLEIKRTVAAPSVFIFPPSDEQLKSGTASVVCLLNNFYPREAKVQWKVDNALQSGNSQESVTEQDSKDSTYSLSSTLTLSKADYEKHKVYACEVTHQGLSSPVTKSFNRGEC
notes: Humanized IgG1/kappa
Regarding B9, the concentration for a half-maximal effect (EC50 (read off the curve)) in assay [2] was approximately 0.02 µg/mL.

B10: h#11B7-T29 (antibody, human IgG1, kappa)
heavy: not shown
light: DIQMTQSPSSLSASVGDRVTITCRASQDIGNYLRWFQQKPGKAPKLLISGATNLAAGVPSRFSGSGSGSDFTLTISSLQPEDFATYYCLQSKESPWTFGQGTKLEIKRTVAAPSVFIFPPSDEQLKSGTASVVCLLNNFYPREAKVQWKVDNALQSGNSQESVTEQDSKDSTYSLSSTLTLSKADYEKHKVYACEVTHQGLSSPVTKSFNRGEC
notes: Humanized IgG1/kappa
Consider B10, for which the 50% effective concentration (EC50 (read off the curve)) in assay [3] was approximately 0.04 µg/mL.

B11: h#11D5-T4 (antibody, human IgG1, kappa, V domains shown)
VH: QVQLQQWGAGLLKPSETLSLTCTVSGYSITSNYWGWIRQPPGKGLEWIGHITNSGNTTYNPSLKSRVTISRDTSKNQFSLKLSSVTAADTAVYYCAKGAFDYWGQGTLVTVSS
VL: DIQMTQSPSSLSASVGDRVTITCRASQDIGNYLSWYQQKPGKAPKRLIYGAIKLAVGVPSRFSGSGSGTEFTLTISSLQPEDFATYYCLQYIQFPLTFGGGTKVEIKR
notes: Humanized IgG1/kappa
For B11, the half-maximal effective concentration (EC50 (read off the curve)) in assay [1] is approximately 0.01 µg/mL.

B12: h#11D5-T6 (antibody, human IgG1, kappa)
heavy: not shown
light: DIQMTQSPSSLSASVGDRVTITCRASQDIGNYLSWFQQKPGKAPRRMIYGAIKLAVGVPSRFSGSGSGTDYTLTISSLQPEDFATYYCLQYIQFPLTFGQGTKVEIKRTVAAPSVFIFPPSDEQLKSGTASVVCLLNNFYPREAKVQWKVDNALQSGNSQESVTEQDSKDSTYSLSSTLTLSKADYEKHKVYACEVTHQGLSSPVTKSFNRGEC
notes: Humanized IgG1/kappa
For B12, the 50% effective concentration (EC50 (read off the curve)) in assay [1] was approximately 0.01 µg/mL.

(Values after patent publication US20120117670A1 (U3 PHARMA, published 2012).)
